B1: SLC35F2 (parent)
chain: QYLAERYKVNTPMLQSFINYCLLF
B2: FAM46C (parent)
chain: FDHLQNRLIATKNPEEIRGGGLLK

Variants of: B1
Test: protein stability index of a GFP-peptide fusion (GPS, HEK-293T) (PSI 1-6); higher = more stable
Details: c terminus: a fixed tail appended
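Note: lentivirally expressed fusions sorted by FACS into six bins by GFP to DsRed ratio, PSI derived from sequencing read proportions per bin multiplied by bin number.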

Point of comparison: Q1G, protein stability index 3.99. Against it:
- Q1C — lower, 3.23
- Q1F — lower, 2.37
- Q1A — lower, 2.56
- Q1D — lower, 3.23
- Q1E — lower, 1.97

Variants of: B2
Test: as above
Details: c terminus: a fixed tail appended

Point of comparison: L23E, protein stability index 4.17. Against it:
- A10D — higher, 4.49
- A10E — lower, 4
- A10Y — lower, 1.87
- A10T — lower, 3.88
- A10G — lower, 3.52
- A10K — lower, 3.49
- A10V — lower, 3.38
- A10C — lower, 3.46
- A10N — lower, 4.07
- A10I — lower, 2.71
- A10L — lower, 2.57
- A10Q — lower, 2.25
- A10P — higher, 4.52
- N6A — lower, 3.58
- N6Q — lower, 4.1
- N6T — lower, 1.91
- N6M — lower, 3.32
- N6S — lower, 3.31
- N6Y — lower, 2.95
- N6I — lower, 2.56
- N6E — lower, 3.87
- N6P — higher, 4.46
- N6G — lower, 3.03
- N6C — lower, 1.88
- N6K — lower, 3.81
- N6F — lower, 2.38
- N6V — lower, 2.55
- L22D — higher, 4.71
- L22I — lower, 4.01
- L22C — lower, 3.78
- L22S — higher, 4.32
- L22E — higher, 4.3
- L22T — higher, 4.34
- L22M — lower, 4
- L22F — lower, 2.76
- L22A — higher, 4.86
- L22R — lower, 3.98
- L22K — higher, 4.46
- L22H — higher, 4.2
- L22Y — lower, 3.78
- L22Q — lower, 4.06
- L22N — higher, 4.57
- L22G — lower, 4.02
- L22P — higher, 4.2
- L22V — lower, 4.14
- R7Q — lower, 3.64
- R7I — lower, 3.67
- R7L — lower, 2.94
- R7Y — lower, 2.99
- R7E — higher, 4.55
- R7M — lower, 3.54
- R7H — higher, 4.35
- R7V — lower, 3.43
- R7A — higher, 4.42
- R7P — lower, 4.07
- R7F — lower, 3.82
- R7G — lower, 3.09
- R7K — higher, 4.19
- R7D — higher, 4.65
- R7C — lower, 3.37
- T11Q — higher, 4.2
- T11M — lower, 3.7
- T11R — lower, 3.97
- T11C — lower, 3.41
- T11Y — lower, 3.31
- T11E — higher, 4.71
- T11D — lower, 3.75
- T11V — lower, 3.74
- T11F — lower, 3.73
- T11S — lower, 3.56
- T11A — lower, 3.55
- T11P — lower, 3.63
- T11W — lower, 3.98
- T11L — higher, 4.29
- T11N — lower, 4.01
- R18L — lower, 3.39
- R18M — lower, 3.03
- R18Q — higher, 4.37
- R18C — higher, 4.44
- R18T — lower, 3.2
- R18K — lower, 4.05
- R18S — lower, 3.77
- R18I — lower, 3.32
- R18A — lower, 3.75
- R18P — higher, 4.26
- R18E — higher, 4.67
- R18F — lower, 2.98
- R18V — lower, 3.64
- R18Y — lower, 3.58
- R18D — higher, 4.42
- R18W — lower, 2.58
- R18N — lower, 3.83
- L23W — lower, 3.2
- L23M — higher, 4.55
- L23T — higher, 4.56
- L23R — higher, 4.29
- L23Y — lower, 2.99
- L23F — lower, 3.36
- L23D — higher, 4.65
- L23A — lower, 3.81
- L23K — higher, 5.07
- L23N — higher, 4.43
- L23H — higher, 4.73
- L23V — higher, 4.3
- L23S — lower, 3.93
- L23Q — higher, 5.13
- L23I — lower, 4.02
- G20W — lower, 3.16
- G20D — lower, 4.05
- G20T — lower, 3.51
- G20Q — lower, 2.42
- G20I — lower, 3.11
- G20H — lower, 3.72
- G20C — lower, 3.21
- G20L — higher, 4.19
- G20P — lower, 3.6
- G20V — lower, 3.2
- G20F — lower, 2.77
- G20A — lower, 3.44
- G20K — lower, 3.98
- G20S — lower, 3.69
- G20M — lower, 2.76
- G20Y — lower, 2.85
- G20R — lower, 4.03
- G20N — lower, 3.74
- P14D — lower, 3.87
- P14G — higher, 4.2
- P14V — lower, 3.25
- P14I — lower, 2.39
- P14K — lower, 3.77
- P14N — lower, 4.12
- P14T — lower, 3.84
- P14Y — lower, 3.2
- P14W — lower, 2.59
- P14L — lower, 3.87
- P14S — lower, 3.49
- P14R — lower, 4
- P14C — lower, 3.74
- P14M — lower, 3.66
- P14F — lower, 2.97
- P14A — lower, 3.69
- P14Q — lower, 3.54
- E15H — lower, 3.65
- E15A — lower, 3.92
- E15T — lower, 3.29
- E15S — lower, 3.75
- E15C — lower, 2.9
- E15P — lower, 3.13
- E15L — lower, 2.78
- E15K — lower, 3.25
- E15I — lower, 2.93
- E15Q — lower, 2.53
- E15M — lower, 4.01
- E15G — lower, 2.99
- E15W — lower, 2.63
- E15F — lower, 3.06
- E15Y — lower, 1.97
- E15R — lower, 3.89
- E15N — lower, 3.95
- E15D — lower, 4.07
- N13W — lower, 3.14
- N13I — lower, 3.47
- N13H — lower, 2.77
- N13T — lower, 3.64
- N13M — lower, 2.81
- N13C — lower, 3.15
- N13E — lower, 4.1
- N13G — lower, 2.86
- N13Q — lower, 3.86
- N13K — lower, 4.03
- N13S — lower, 3.62
- N13F — lower, 2.96
- I9Q — higher, 4.57
- I9G — higher, 4.3
- I9Y — lower, 3.56
- I9A — higher, 4.86
- I9S — lower, 3.98
- I9K — higher, 4.27
- I9M — lower, 3.58
- I9R — lower, 4.05
- I9W — lower, 2.16
- I9L — higher, 4.44
- I9F — lower, 3.53
- I9H — lower, 3.05
- I9T — higher, 4.4
- I9D — lower, 3.5
- I9C — higher, 4.43
- I9N — lower, 4.06
- L8Q — higher, 5.05
- L8T — higher, 4.34
- L8N — higher, 4.45
- L8S — higher, 4.62
- L8W — lower, 4
- L8K — lower, 4.16
- L8P — higher, 4.72
- L8I — lower, 3.66
- L8A — higher, 4.43
- L8D — higher, 5.05
- L8E — higher, 5.03
- L8C — lower, 4.03
- L8F — lower, 3.23
- L8Y — higher, 4.4
- L8V — lower, 2.97
- L8R — lower, 3.72
- L8M — lower, 3.99
- L8G — higher, 4.39
- K12A — lower, 3.68
- K12H — lower, 3.1
- K12L — lower, 2.65
- K12M — lower, 3.37
- K12P — higher, 4.24
- K12Y — lower, 3.24
- K12T — lower, 3.75
- K12N — lower, 3.82
- K12G — lower, 4
- K12V — higher, 4.38
- K12E — lower, 3.71
- K12C — lower, 2.9
- K12F — lower, 2.59
- K12Q — lower, 3.61
- Q5W — lower, 1.08
- Q5H — lower, 3.87
- Q5P — lower, 3.63
- Q5S — lower, 4
- Q5I — lower, 3.17
- Q5N — lower, 3.44
- Q5L — lower, 2.17
- Q5K — lower, 3.67
- Q5R — lower, 2.86
- Q5V — lower, 3.33
- Q5C — lower, 3.96
- Q5T — lower, 3.99
- Q5A — higher, 4.57
- Q5F — lower, 3.27
- Q5M — lower, 2.92
- Q5E — lower, 3.82
- I17W — lower, 3.44
- I17R — lower, 3.86
- I17P — lower, 3.55
- I17K — lower, 3.39
- I17S — higher, 4.35
- I17T — lower, 4.01
- I17Y — lower, 3.58
- I17H — higher, 4.28
- I17M — lower, 3.82
- I17D — higher, 4.52
- I17E — higher, 4.26
- I17C — higher, 4.18
- I17Q — higher, 4.86
- I17A — higher, 4.4
- I17N — higher, 4.27
- I17F — lower, 3.46
- K24A — lower, 2.94
- K24S — lower, 2.9
- K24V — lower, 2.29
- K24I — lower, 1.96
- K24Y — lower, 1.93
- K24T — lower, 3.45
- K24W — lower, 1.95
- K24R — lower, 3.35
- K24N — lower, 3.52
- K24L — lower, 2.18
- K24Q — lower, 3.27
- K24E — lower, 3.79
- K24C — lower, 2.28
- K24D — lower, 3.51
- K24H — lower, 3.07
- K24F — lower, 2.2
- K24G — lower, 3.52
- K24M — lower, 3.11
- G19D — higher, 4.6
- G19Q — lower, 3.74
- G19H — lower, 3.99
- G19Y — lower, 3.25
- G19I — lower, 3.18
- G19L — lower, 2.57
- G19C — lower, 3.57
- G19S — lower, 3.69
- G19V — lower, 3.18
- G19W — lower, 1.74
- G19E — lower, 4.04
- G19R — higher, 4.27
- G19K — higher, 4.26
- G19A — lower, 3.48
- G19F — lower, 1.73
- G19M — lower, 2.61
- G19N — lower, 3.79
- G19P — lower, 3.29
- G19T — lower, 4.01
- L4Y — lower, 3.85
- E16A — lower, 3.43
- E16W — lower, 2.5
- E16S — lower, 3.48
- E16F — lower, 2.44
- E16T — lower, 3.79
- E16L — lower, 2.9
- E16D — lower, 4.13
- E16V — lower, 3.61
- E16K — lower, 4.02
- E16R — lower, 3.47
- E16P — lower, 2.73
- E16C — lower, 2.85
- E16Y — lower, 3.91
- E16N — lower, 3.67
- E16H — lower, 2.55
- E16I — lower, 3.9
- E16G — lower, 2.93
- E16Q — lower, 3.58
- G21I — lower, 2.92
- G21S — lower, 4.06
- G21H — lower, 3.94
- G21Y — lower, 3.21
- G21P — lower, 3.91
- G21W — lower, 2.28
- G21Q — lower, 3.41
- G21C — lower, 3.29
- G21T — lower, 4.07
- G21L — lower, 2.61
- G21E — lower, 3.93
- G21F — lower, 2.82
- G21A — lower, 3.69
- G21K — higher, 4.26
- G21N — higher, 4.51
- G21M — lower, 3.25
- G21V — lower, 3.53
- G21R — lower, 3.47
- G21D — lower, 4

Source: the supplement of paper PMC10567573
